Measurements reported in patent US20040265295A1 (WISCONSIN ALUMNI RESEARCH FOUNDATION, published 2004).
Ends that are not written are not given here.

What was measured:
[1] = target: T1, GST-talin head Lys^357->Gln mutant (human, UniProt Q9Y490 1-435); experiment: GST pull-down
T1 construct: Talin head mutant in pET42; also called mutant GST-talin; not shown: GST (and further tags) of the pET42 vector
Description: (§1) Purified GST-talin head proteins were incubated with PIPKIγ661 tails or β1-integrin tail, together with Glutathione SEPHAROSE™ 4 Fast Flow (Amersham Biosciences, Piscataway, N.J.), in Buffer B (PBS, 0.2% NP-40, 2 mM DTT) at 4° C. for 4 hours. The beads were washed three times with Buffer B and analyzed by western blot. For competition assays, GST-talin head proteins were incubated with peptides or competing proteins for 2 hours, then the binding proteins were added and the mixtures were incubated for another 4 hours.

[2] = target: T2, GST-talin head Arg^358->Gln mutant (human, UniProt Q9Y490 1-435); experiment: GST pull-down
T2 construct: Talin head mutant in pET42; also called mutant GST-talin; not shown: GST (and further tags) of the pET42 vector
T2 sequence (Q9Y490 other isoform, or with tags, fused parts or gaps mutant): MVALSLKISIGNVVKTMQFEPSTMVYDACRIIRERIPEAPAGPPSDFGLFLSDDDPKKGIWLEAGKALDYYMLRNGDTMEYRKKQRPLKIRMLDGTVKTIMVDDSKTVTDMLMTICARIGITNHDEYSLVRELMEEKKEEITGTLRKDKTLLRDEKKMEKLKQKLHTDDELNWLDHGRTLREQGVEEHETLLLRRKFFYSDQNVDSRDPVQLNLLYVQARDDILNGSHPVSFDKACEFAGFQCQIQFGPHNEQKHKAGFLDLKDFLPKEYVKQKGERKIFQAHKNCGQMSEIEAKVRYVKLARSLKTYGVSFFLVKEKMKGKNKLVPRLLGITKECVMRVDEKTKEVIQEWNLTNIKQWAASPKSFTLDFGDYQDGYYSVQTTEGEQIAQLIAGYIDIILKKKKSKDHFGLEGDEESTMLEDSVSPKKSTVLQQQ
Description: as §1

T1 sequence (Q9Y490 other isoform, or with tags, fused parts or gaps mutant): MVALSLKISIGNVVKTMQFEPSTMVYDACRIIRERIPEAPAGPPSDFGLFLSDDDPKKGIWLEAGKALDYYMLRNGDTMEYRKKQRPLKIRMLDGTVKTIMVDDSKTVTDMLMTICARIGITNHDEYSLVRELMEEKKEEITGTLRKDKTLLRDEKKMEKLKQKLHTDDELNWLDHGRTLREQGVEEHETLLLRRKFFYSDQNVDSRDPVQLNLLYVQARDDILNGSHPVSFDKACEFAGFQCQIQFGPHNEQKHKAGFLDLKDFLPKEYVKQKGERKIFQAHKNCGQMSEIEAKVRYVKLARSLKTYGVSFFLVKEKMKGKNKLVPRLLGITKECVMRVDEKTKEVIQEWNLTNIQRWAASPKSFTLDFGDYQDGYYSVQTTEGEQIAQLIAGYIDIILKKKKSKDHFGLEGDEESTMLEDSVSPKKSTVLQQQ

- binding result [1]: no binding
- binding result [2]: no binding
B1: His-tagged mouse β1-integrin tail (receptor, UniProt P09055 752-798, looked up)
chain: KLLMIIHDRREFAKFEKEKMNAKWDTGENPIYKSAVTTVVNPKYEGK
modifications: not fully specified (N-terminus); also: N-terminal His tag of pET28 vector, sequence not given here
notes: domain: tail; also called His-β1-integrin tail; His-β-integrin; not shown: His tag of the pET28 vector
